Experimental data: US20180112193A1, “CSF1 THERAPEUTICS” (University Court Of The University Of Edinburgh, priority 2013, published 2018)

Legend:
neonatal pigs = assay: Fc-CSF-1 efficacy/safety treatment trial in neonatal pigs; type: in vivo, pig
Description: Further tests were conducted to assess Fc-CSF-1 efficacy/safety treatment trial in neonatal pigs. At the two doses tested (0.12 mg/Kg×3 and 0.5 mg/Kg×6) the Fc-CSF-1 treatment had little effect on body weight gain at any time point. […] It was noted that in the control animals, that the total blood cell count, monocyte count and granulocyte count declines in the first two weeks of life in the pig.

male C57BI6 mice [1] = assay: Murine models of acute and acute-on-chronic liver injury (all three injury models); type: in vivo
Description: (§1) Forty-eight male C57BI6 mice aged 10-12 weeks underwent either 2/3 partial hepatectomy, paracetamol intoxication or chronic liver injury plus 2/3 partial hepatectomy. 2/3 partial hepatectomy was performed by ligating the left lobe and left and right median lobes. Paracetamol intoxication was performed by intraperitoneal administration of 350 mg/kg paracetamol dissolved in phosphate buffered saline (PBS). Chronic liver injury plus 2/3 partial hepatectomy was performed by eight weeks intraperitoneal carbon tetrachloride administration 1 mcl/g twice weekly dissolved in olive oil followed by ⅔ partial hepatectomy as described above. […] Control mice (n=8 per injury model) received subcutaneous PBS of appropriate volume. All mice were culled on day 4 following injury (partial hepatectomy or paracetamol intoxication).
(§2) Following a midline laparotomy the liver was excised and weighed. Liver weight to body weight ratio was calculated and expressed as a percentage. Livers were fixed in 4% formalin overnight then transferred to 70% ethanol. Livers were then embedded in paraffin blocks and 4 μm sections cut. Immunohistochemistry for Ki67 (a marker of cellular proliferation expressed throughout the cell cycle) was performed following heat mediated antigen retrieval in Tris/EDTA solution at pH9. Hepatocyte proliferation was quantified by counting ki67 positive hepatocytes in 20 high powered fields (400×) per animal and the mean calculated.
The effects of Fc-CSF1 on liver regeneration in murine models of acute liver injury (partial hepatectomy; paracetamol intoxication) and acute-on-chronic liver injury (chronic liver injury plus partial hepatectomy) were studieD. The treatment group (n=8 per injury model) received 0.5 mcg/g Fc-CSF1 administered subcutaneously immediately following either partial hepatectomy or paracetamol intoxication and subsequently every 24 hours for three further doses. Control mice (n=8 per injury model) received subcutaneous PBS of appropriate volume. […]

male C57BI6 mice [2] = assay: Paracetamol intoxication in mice; type: in vivo, mouse; conditions: administered 12 hours following paracetamol intoxication; Day 4
Description: as §1, §2
Hepatic CSF1 gene expression was assessed in mice following paracetamol intoxication (350 mg/kg paracetamol IP following overnight fast) at time points up to 4 days, showing peak CSF1 gene expression at day 2 (FIG. 14A).

C57BI6 male mice = assay: Hepatic phagocytic ability after partial hepatectomy (gene analysis, bead clearance assay, ex vivo imaging); type: in vivo, mouse
Description: C57BI6 male mice (8-10 weeks) underwent either partial hepatectomy (⅔ resection) or paracetamol intoxication (350 mg/kg intraperitoneal following overnight fast). CSF1-Fc was administered as previous (0.75 mg/kg). Gene analysis was performed using Qiagen Quantitect Primers (MSR1 and MARCO) and related to GAPDH level for each sample. […] 0.1 mls of 5000 IU/ml heparin solution was infused to prevent blockage of the catheter. 100 μl of red fluorescent bead solution (1:5 Latex beads 1.0 μm, fluorescent red, SIGMA-ALDRICH®) was infused through the cannula (1:2 solution for assay following paracetamol injury). 20 mcl of blood was removed from the cannula every two minutes starting from 1 minute post injection for 15 minutes. Blood was immediately fixed with 300 μl FACS-Lysing solution (BD Biosceinces). After 15 minutes mice were perfused with 15 mls 0.9% saline through the IVC cannula after dividing the portal vein for outflow. Organs were then removed (Liver, spleen, lungs, kidney, brain) and imaged with a Kodak In-Vivo Multispectral FX image station (Excitation: 550 nm; Emission: 600 nm; Exposure 1 sec; f-stop 2.8). Subsequently blood samples were analysed using a LSR-Fortessa™ flow cytometer (BD Biosciences) with fluorescent beads detected on the blue channel (B695/40) by a 1 minute sample collection on low flow rate setting.

[3] = system: csf1r-EGFP (MacGreen) mice; assay: Fc-CSF-1 injected subcutaneously into csf1r-EGFP mice on 4 days, sacrificed on the 5th day; type: in vivo, mouse
Description: Mice were injected with Fc-CSF-1 subcutaneously on each of 4 days and sacrificed on the 5th day. The mice were csf1r-EGFP (MacGreen) mice on the C57BI/6 background. Tissue processing and immunohistochemistry were carried out as described in (Alikhan et al Am J. Pathol. 179, 1243-1256, 2011 and Macdonald et al Blood. 116, 3955-3963, 2010). A comparison of the effect of recombinant pig CSF-1 or Fc-CSF-1 on the proliferation of mouse bone marrow cells or the Ba/F3 CS1R reporter cell line using the assay described in Gow et al Cytokine.

[4] = 0.12 mg/Kg×3, end of the experiment
[5] = all injury models, vs PBS control
[6] = day 2 following partial hepatectomy
[7] = 1 mg/kg, whole group or segregated for male or female

B1: Fc-CSF-1: active fragment of porcine CSF-1 (SEQ ID NO:1) linked to the hinge-CH3 region of porcine IgG1a (SEQ ID NO:2) (protein, listed as Sus scrofa)
chain: SENCSHMIGDGHLKVLQQLIDSQMETSCQIAFEFVDQEQLTDPVCYLKKAFLQVQDILDETMRFRDNTPNANVIVQLQELSLRLNSCFTKDYEEQDKACVRTFYETPLQLLEKIKNVFNETKNLLKKDWNIFSKNCNNSFAKCSSQHERQPEGRGTKTKPPCPICPGCEVAGPSVFIFPPKPKDTLMISQTPEVTCVVVDVSKEHAEVQFSWYVDGVEVHTAETRPKEEQFNSTYRVVSVLPIQHQDWLKGKEFKCKVNNVDLPAPITRTISKAIGQSREPQVYTLPPPAEELSRSKVTVTCLVIGFYPPDIHVEWKSNGQPEPEGNYRTTPPQQDVDGTFFLYSKLAVDKARWDHGETFECAVMHEALHNHYTQKSISKTQGK
kidney weight (neonatal pigs; [4]): did not alter
liver weight (neonatal pigs; [4]): did not alter
lung weight (neonatal pigs; [4]): did not alter
spleen weight (neonatal pigs; [4]): did not alter
body weight gain (neonatal pigs; 0.12 mg/Kg×3 and 0.5 mg/Kg×6, any time point): little effect
granulocyte count (neonatal pigs; blood, vs control animals): increased
lymphocyte count (neonatal pigs; blood, vs control animals): increased
monocyte count (neonatal pigs; blood, vs control animals): increased
weight gain (neonatal pigs; higher dose (0.5 mg/Kg×6), data not shown): marginal decrease
histiocytes in the liver (pathology report) (neonatal pigs; liver): increased numbers
hepatic weights (male C57BI6 mice [1]; [5]): growth promoting effect
hepatocyte proliferation (male C57BI6 mice [1]; [5]): growth promoting effect
tolerability of interventions and treatments (male C57BI6 mice [1]; subcutaneously immediately after injury, then every 24 hours for three further doses): well tolerated
hepatocyte proliferation (male C57BI6 mice [2]): increasing
liver weight to body weight ratio (male C57BI6 mice [2]): significantly increasing
phagocytic ability of the liver, clearance of fluorescent latex microbeads from the circulation (C57BI6 male mice; 0.75 mg/kg, following partial hepatectomy): dramatically enhanced
fluorescent intensity of whole liver, ex vivo imaging (C57BI6 male mice; 15 minutes after bead injection, following partial hepatectomy): increased fluorescent intensity
MARCO gene expression, whole liver (C57BI6 male mice; [6]): upregulation
MSR1 (macrophage scavenger receptor 1) gene expression, whole liver (C57BI6 male mice; [6]): upregulation
body weight, dose response curve ([3]; 0.1 mg/kg): detectable activity
total body weight ([3]; 1 mg/kg): clearly increased total body weight
total liver weight ([3]; 1 mg/kg): significantly increased
weight of the spleen ([3]; 1 mg/kg): almost doubled
weight of the kidney [3, 7]: no effect
weight of the lung [3, 7]: no effect
segmented neutrophil counts ([3]; blood): increases
total lymphocytes ([3]; blood): no effect
total blood monocyte count ([3]; blood, both sexes): elevates
white blood cell count ([3]; blood, both sexes): elevates
bone resorbing osteoclasts in bone ([3]; growth plate, zone of resorption and shaft, data not shown): increase
increase in abundance of macrophage-specific genes (csf1r, emr1 (F4/80)) ([3]; liver, Affymetrix microarrays): 4-8 fold
induction of classical inflammatory genes such as TNF-a, IL-6 or IL-1 ([3]; liver, Affymetrix microarrays): no evidence of induction
cell proliferation in liver, PCNA immunostaining ([3]; liver, proliferating cells identified as hepatocytes): extensive cell proliferation
macrophage numbers in liver, F4/80 immunostaining ([3]; liver, vs PBS control): large increase in macrophage numbers
numbers of macrophages in the spleen, csf1r-EGFP reporter fluorescence ([3]; spleen, treated vs control): greatly increased fluorescence
macrophage numbers and F4/80 intensity in spleen, immunostaining ([3]; spleen, vs PBS control): large increase in macrophage numbers and also intensity of F4/80
